Assay results: patent US20170233488A1 (University of California, published 2017)

Target: T1, ALCAM/MEMD/CD166 (human, UniProt Q13740 28-583)
T1 construct: whole, on cells; Endogenous antigen on Du-145 prostate cancer cells (FACS) and in lysates of surface-biotinylated Du-145 cells (IP and Western blot)
T1 sequence (looked up): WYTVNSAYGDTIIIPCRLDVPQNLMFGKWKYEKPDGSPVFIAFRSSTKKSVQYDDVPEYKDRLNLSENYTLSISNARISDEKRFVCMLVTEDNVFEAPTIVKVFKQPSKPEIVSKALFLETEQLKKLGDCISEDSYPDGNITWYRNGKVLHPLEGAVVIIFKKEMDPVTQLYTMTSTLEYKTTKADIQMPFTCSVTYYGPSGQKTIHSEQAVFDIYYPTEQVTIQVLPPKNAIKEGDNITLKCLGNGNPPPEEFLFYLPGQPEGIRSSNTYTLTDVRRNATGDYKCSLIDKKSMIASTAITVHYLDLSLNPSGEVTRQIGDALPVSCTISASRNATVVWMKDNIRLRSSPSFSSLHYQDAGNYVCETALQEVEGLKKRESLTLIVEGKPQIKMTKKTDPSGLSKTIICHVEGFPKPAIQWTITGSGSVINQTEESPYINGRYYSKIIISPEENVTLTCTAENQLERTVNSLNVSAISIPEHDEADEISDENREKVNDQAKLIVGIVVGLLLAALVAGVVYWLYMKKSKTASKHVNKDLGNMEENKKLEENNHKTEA
Test: FACS on Du-145 cells, equilibrium binding at 4 C overnight, apparent KD by curve fitting of MFI
Protocol: Monodispersed DU-145 cells were incubated with varying concentrations of IgG1s at 4° C. overnight to allow equilibrium binding. After washing, bound human IgG1 s were detected by R-phycoerythrin-conjugated goat anti-human secondary antibody and analyzed by FACS. Mean fluorescence intensity (MFI) values were plotted and the KD was determined by curve fitting using GraphPad (GraphPad Software, San Diego, Calif.).

B1: anti-ALCAM IgG1 (585II41.1, also known as H3) (antibody, V domains shown)
VH: QVQLVESGGGLVQPGGSLRLSCAASGFTFSSYAMSWVRQAPGKGLEWVSAISGSGGSTYYADSVKGRFTISRDNSKDTLYLQMNSLRAEDTAVYYCASRSLLDYWGQGTLVTVSS
VL: NFMLTQDPAVSVALGQTVRITCQGDSLRSYYASWYQQKPGQAPLLVIYGKNNRPSGIPDRFSGSSSGNTASLTITGAQAEDEADYYCNSRDSSGNPVFGGGTKVTVL
notes: also called H3 IgG; H3 IgG1
B1 gave a Kd of 4.4 pM.
